Results as given in patent US9804152B1, “Human ex vivo skin model and its use in methods of identifying modulators of skin inflammation” (The Procter & Gamble Company, priority 2012, dated 2017).
Marks after values point to notes of the source that are not given here.

Assays:
Format in all cases: cell-based
[1] = system: ex vivo human skin sample; assay: Inducers of inflammation: inflammation marker secreted into the media by ex vivo skin samples (ELISA); conditions: 20 ng/ml IL-22 only, day 4; untreated about 5,800 pg/ml
From the text: (§1) This Example describes the materials and methods used in preparing ex vivo skin samples for use according to the methods disclosed herein. Materials used in preparation of ex vivo skin samples for use in the disclosed screening methods included: Dulbecco's Modified Eagle Medium (DMEM) plus Glutamax, antibiotic and antimycotics, 1× phosphate-buffered saline (PBS), 150×15 mm sterile culture dishes, sterile gauze 4×4, disposable safety scalpels, 4 mm disposable biopsy punch, 6-well cell-culture inserts, disinfected tweezers, cotton-tipped applicators, 6-well culture plates, ruled, disinfected cutting mat (12×12), scraper handle, tissue freezing medium, biopsy cassettes, frozen-tissue freezing vessels, 10% formalin, shipping containers for fixed tissue, and biohazard/sharps containers. Media was prepared in advance of the arrival of ex vivo skin. The skin arrived with the dermis (fat) side down on sterile DMEM soaked gauze in a sterile culture dish. The culture dish was taped shut and in a biohazard zip-lock baggie on an ice pack in a secondary container.
(§2) On arrival, the skin was removed from the bag and soaked in 3×DMEM media (3× refers to concentration of antibiotic and antimycotics) and stored at 4° C. for 1 hour. After 1 hour, the skin was removed from the 3×DMEM and rinsed with sterile 1×PBS. The skin was placed in a clean culture dish containing gauze soaked with 1×DMEM. The sample was put in culture the same day as arrival. If necessary, however, the ex vivo skin samples can be stored at 4° C. overnight.
In preparation for culture, the following was performed: on a cutting mat, the skin was flipped over so that the epidermis was down and the subcutis (fat) was exposed. The fat was removed with a disposable scalpel by carefully grasping one corner of the skin with sterile serrated forceps and scraping the fat away with the blade held at a 45° angle to the skin. After the fat was removed, the surgical edges were cut off with a scalpel using a scraper as a straight edge guide and to hold the skin in place. […]

[2] = system: ex vivo human skin sample; assay: Inducers of inflammation: inflammation marker gene expression in ex vivo skin samples (PCR); conditions: for CALML5 Up-Down Regulation (relative to control) / DEFB4 Up-Down Regulation (relative to control) / FLG Up-Down Regulation (relative to control) / IL-6 Up-Down Regulation (relative to control) / IL-8 Up-Down Regulation (relative to control) / KRT6A Up-Down Regulation (relative to control) / KRT10 Up-Down Regulation (relative to control) / S100A7 Up-Down Regulation (relative to control) / TNF-α Up-Down Regulation (relative to control): IL-17 or IL-22 alone, 96 hours
From the text: as §1, §2
In preparation for culture, the following was performed: on a cutting mat, the skin was flipped over so that the epidermis was down and the subcutis (fat) was exposed. The fat was removed with a disposable scalpel by carefully grasping one corner of the skin with sterile serrated forceps and scraping the fat away with the blade held at a 45° angle to the skin. After the fat was removed, the surgical edges were cut off with a scalpel using a scraper as a straight edge guide and to hold the skin in place. Using the scraper as a guide, the skin was cut into 1.25 cm (2×2 squares on grid) wide strips using a ruler to measure the width. The strip was rinsed in a 100 mm culture dish containing 1×PBS. The strips were cut into 1.25 cm^2 squares and placed in a 100 mm culture dish on 1×DMEM-soaked gauze until they were put into culture 30 minutes later.
Culture plates were prepared that included 2.5 ml of media or media with treatment (e.g., a candidate modulator, an inflammation inducer, and/or an inhibitor of inflammation) in each well of a 6-well plate. One Millicell culture insert was added to each well and 100 μl of 1× DMEM was put in the center of each insert membrane. Squares of skin tissue were selected randomly and placed into each of the inserts (one piece of skin per insert), on top of the media on the membrane. The plates were stored at 33° C., with fresh media changes daily. As a control, baseline tissue measurements were collected from excess waste (cryogenics were used for snap-freezing). Baseline biopsy collection included two 4 mm punches for an MTT colorimetric assay (described below); one 4 mm punch was snap-frozen in OCT tissue compound for fresh histology; one 4 mm punch was fixed in 10% formalin and sent out for paraffin embedding. Expression measurements of inflammation marker genes were performed using PCR and primers appropriate to the known sequence of the gene(s) of interest.
Culturing and treatment of the ex vivo skin model comprised replicates of n=5. Before experimental treatment, compounds (e.g., a candidate modulator, an inflammation inducer, or a suppressor of inflammation) were solubilized in appropriate solvents (including PBS, media, alcohol, and DMSO). Appropriate dilutions were made for treatment and 15 ml of media was used per plate per day for treatment, with 2.5 ml of media per well under the cell culture insert. Media was pre-warmed and changed every day during the experiment.

[3] = system: ex vivo human skin sample; assay: Histological analysis of ex vivo skin samples; conditions: IL-22 at 20 ng/mL, biopsied six days after treatment, vs untreated sample at 24 hours
Protocol: The first sample was analyzed 24 hours after being collected (i.e., biopsied) from an untreated ex vivo skin sample, and the second sample was collected (i.e., biopsied) from an ex vivo skin sample six days after the skin sample was treated with IL-22 at 20 ng/mL. […] Also consistent was the effect of 10 μM clobetasol in inhibiting inflammation, as measured by a reduction in marker gene expression. In particular, S100A7 was induced about 34-fold relative to untreated skin samples, with clobetasol leading to about 26-fold increase in expression relative to the untreated control. For IL-8, induction was about 16-fold and clobetasol reduced that to about 3-fold. For IL-6, induction was about 6-fold and clobetasol inhibited that value to about 0.3-fold relative to control values. For DEFB4, induction was about 800-fold and clobetasol reduced that increase to about 200-fold relative to controls.

B1: IL-22: pro-inflammatory cytokine used as inducer of inflammation; also inducer of cell proliferation (protein, UniProt Q9GZX6 34-179, looked up)
Interleukin-22: APISSHCRLDKSNFQQPYITNRTFMLAKEASLADNNTDVRLIGEKLFHGVSMSERCYLMKQVLNFTLEEVLFPQSDRFQPYMQEVVPFLARLSNRLSTCHIEGDDLHIQRNVQKLKDTVKKLGESGEIKAIGELDLLFMSLRNACI
B1 was tested, and the “IL-8 secreted into the media” value [1] was “about 5,500 pg/ml”, the “induction of inflammation in ex vivo skin samples, in words” value [2] was “shown to induce inflammation in ex vivo skin samples” and the “DEFB4 expression relative to an untreated ex vivo skin sample” value ([2]; 2 ng/ml IL-22) was 0.00. For the same molecule, the “KRT10 fold-expression level relative to an untreated ex vivo skin sample” value ([2]; 2 ng/ml IL-22) was “about 0.00 fold”, the “DEFB4 expression relative to an untreated ex vivo skin sample” value ([2]; 20 ng/ml IL-22) was “about 3.00” and the “KRT10 fold-expression level relative to an untreated ex vivo skin sample” value ([2]; 20 ng/ml IL-22) was “about −3.00 fold”. The “DEFB4 expression relative to an untreated ex vivo skin sample” value ([2]; 200 ng/ml IL-22) was “about 20.00”, the “KRT10 fold-expression level relative to an untreated ex vivo skin sample” value ([2]; 200 ng/ml IL-22) was “about −18.00 fold” and the “CALML5 Up-Down Regulation (relative to control)” value ([2]; 2 ng/ml) was 1.17*. The “DEFB4 Up-Down Regulation (relative to control)” value ([2]; 2 ng/ml) was −1.03, the “FLG Up-Down Regulation (relative to control)” value ([2]; 2 ng/ml) was 1.28 and the “IL-6 Up-Down Regulation (relative to control)” value ([2]; 2 ng/ml) was 1.35. For the same molecule, the “IL-8 Up-Down Regulation (relative to control)” value ([2]; 2 ng/ml) was 1.71*, the “KRT6A Up-Down Regulation (relative to control)” value ([2]; 2 ng/ml) was −1.16 and the “KRT10 Up-Down Regulation (relative to control)” value ([2]; 2 ng/ml) was 1.40. The “S100A7 Up-Down Regulation (relative to control)” value ([2]; 2 ng/ml) was 1.02, the “TNF-α Up-Down Regulation (relative to control)” value ([2]; 2 ng/ml) was 1.95* and the “CALML5 Up-Down Regulation (relative to control)” value ([2]; 20 ng/ml) was −2.29*. For the same molecule, the “DEFB4 Up-Down Regulation (relative to control)” value ([2]; 20 ng/ml) was 2.69*, the “FLG Up-Down Regulation (relative to control)” value ([2]; 20 ng/ml) was −10.55* and the “IL-6 Up-Down Regulation (relative to control)” value ([2]; 20 ng/ml) was 1.30. For the same molecule, the “IL-8 Up-Down Regulation (relative to control)” value ([2]; 20 ng/ml) was 1.43, the “KRT6A Up-Down Regulation (relative to control)” value ([2]; 20 ng/ml) was 1.32 and the “KRT10 Up-Down Regulation (relative to control)” value ([2]; 20 ng/ml) was −2.69*. For the same molecule, the “S100A7 Up-Down Regulation (relative to control)” value ([2]; 20 ng/ml) was 2.04*, the “TNF-α Up-Down Regulation (relative to control)” value ([2]; 20 ng/ml) was 1.56* and the “CALML5 Up-Down Regulation (relative to control)” value ([2]; 200 ng/ml) was −4.61*. For the same molecule, the “DEFB4 Up-Down Regulation (relative to control)” value ([2]; 200 ng/ml) was 20.23*, the “FLG Up-Down Regulation (relative to control)” value ([2]; 200 ng/ml) was −13.37* and the “IL-6 Up-Down Regulation (relative to control)” value ([2]; 200 ng/ml) was 1.31. For the same molecule, the “IL-8 Up-Down Regulation (relative to control)” value ([2]; 200 ng/ml) was 1.72*, the “KRT6A Up-Down Regulation (relative to control)” value ([2]; 200 ng/ml) was 1.08 and the “KRT10 Up-Down Regulation (relative to control)” value ([2]; 200 ng/ml) was −17.54*. The “TNF-α Up-Down Regulation (relative to control)” value ([2]; 200 ng/ml) was 1.33* and the “histology: skin cell proliferation (basal layer)” value [3] was “clearly exhibits a proliferative basal layer”.
